This is an account of results in article PMC12493188.

Test [1] has as its target reaction centre-light harvesting 1 (RC-LH1) core complex, monomer, from Rba. sphaeroides strain DX13 (Rhodobacter sphaeroides 2.4.1) (UniProt P0C0Y8).
The target is the same in test [2]. This is another data set of the same source.

In test [1], “cytochrome c 2 (cyt c 2) of Rba. sphaeroides (from UniProt P0C0X8 1-124) (natural protein)” showed a cyt c 2 oxidation rate by RC-LH1 against NaCl (series up to 500 mM; optimum 100 mM in Table 1): activity left at 500 mM NaCl, percent of the maximum (% of maximum activity) of 40. In test [2], this substance gave a K M of redox carrier oxidation by RC-LH1, steady-state turnover (0.125 µM RC-LH1, 50 µM UQ-2, 50 mM Tris-HCl pH 7.5, 100 mM NaCl, 0.03% β-DDM, 25°C) of 6.8 µM and a V max of redox carrier oxidation by RC-LH1, steady-state turnover (0.125 µM RC-LH1, 50 µM UQ-2, 50 mM Tris-HCl pH 7.5, 100 mM NaCl, 0.03% β-DDM, 25°C) of 293 e^−/RC/s.
With “cytochrome c 6 (cyt c 6) of Synechocystis sp. PCC 6803 (from UniProt P46445 36-120) (natural protein)”, in test [2], the K M of redox carrier oxidation by RC-LH1, steady-state turnover (0.125 µM RC-LH1, 50 µM UQ-2, 50 mM Tris-HCl pH 7.5, 100 mM NaCl, 0.03% β-DDM, 25°C) came to 66.3 µM; the V max of redox carrier oxidation by RC-LH1, steady-state turnover (0.125 µM RC-LH1, 50 µM UQ-2, 50 mM Tris-HCl pH 7.5, 100 mM NaCl, 0.03% β-DDM, 25°C) came to 37.8 e^−/RC/s; the cyt c 6 oxidation rate by RC-LH1 against NaCl (0-800 mM): optimum [NaCl] was found to be 700 mM.
For the substance “cytochrome c (cyt c) from horse heart mitochondria (from UniProt P00004 1-105) (natural protein)”, the cyt c oxidation rate by RC-LH1 against NaCl (series up to 500 mM; observed optimum 50 mM): activity lost at 500 mM NaCl (% of activity lost) in test [1] turned out to be 90.
In turn, “isocytochrome c 2 (iso c 2) of Rba. sphaeroides (natural protein)” registered an iso c 2 oxidation rate by RC-LH1 against NaCl (series up to 500 mM; optimum 50 mM in Table 1): activity left at 500 mM NaCl, percent of the maximum (% of maximum activity) in test [1] of 20. Moreover, in test [2], the K M of redox carrier oxidation by RC-LH1, steady-state turnover (0.125 µM RC-LH1, 50 µM UQ-2, 50 mM Tris-HCl pH 7.5, 100 mM NaCl, 0.03% β-DDM, 25°C) worked out at 5.88 µM and the V max of redox carrier oxidation by RC-LH1, steady-state turnover (0.125 µM RC-LH1, 50 µM UQ-2, 50 mM Tris-HCl pH 7.5, 100 mM NaCl, 0.03% β-DDM, 25°C) is 230 e^−/RC/s.
Regarding “plastocyanin (Pc) of Synechocystis sp. PCC 6803, C-terminally StrepII-tagged (from UniProt P21697 29-126) (natural protein)”, in test [2], the K M of redox carrier oxidation by RC-LH1, steady-state turnover (0.125 µM RC-LH1, 50 µM UQ-2, 50 mM Tris-HCl pH 7.5, 100 mM NaCl, 0.03% β-DDM, 25°C) turned out to be 209 µM; the Pc oxidation rate by RC-LH1 against NaCl (0-800 mM): optimum [NaCl] worked out at 700 mM; the V max of redox carrier oxidation by RC-LH1, steady-state turnover (0.125 µM RC-LH1, 50 µM UQ-2, 50 mM Tris-HCl pH 7.5, 100 mM NaCl, 0.03% β-DDM, 25°C) worked out at 7.92 e^−/RC/s.
